The values below come from patent US20220306751A1 (MYTHIC THERAPEUTICS, published 2022).

Substitutions are numbered along the chain they refer to.

This experiment deals with T1, CD123 Protein, His Tag, Acro Biosciences Cat. No. ILA-H52H6 (Homo sapiens (Human), UniProt P26951 19-305).
T1 construct: Bought protein; not shown: His tag
T1 sequence: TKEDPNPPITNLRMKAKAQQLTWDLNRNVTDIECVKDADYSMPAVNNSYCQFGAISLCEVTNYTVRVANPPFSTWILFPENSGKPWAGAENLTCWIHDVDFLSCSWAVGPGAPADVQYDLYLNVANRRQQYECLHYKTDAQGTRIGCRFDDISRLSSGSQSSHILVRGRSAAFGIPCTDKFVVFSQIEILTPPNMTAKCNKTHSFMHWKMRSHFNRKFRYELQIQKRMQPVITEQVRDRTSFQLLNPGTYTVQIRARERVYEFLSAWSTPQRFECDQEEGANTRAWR
Description: BLI, IgG on anti-human Fc sensor, 50 nM CD123, pH 7.4 and pH 5.4. The text has this:
We selected IMGN632 (Heavy chain SEQ ID NO: 1, Light chain SEQ ID NO: 2) as a CD123-binding monoclonal antibody for pH engineering via histidine scanning. Briefly, CDRs in the heavy chain were identified using the methods described by Kabat et al (Kabat et al. (1992) Sequences of Proteins of Immunological Interest, DIANE publishing) and IMGT (Lefranc M P (1999) “The IMGT unique numbering for Immunoglobulins, T cell receptors and Ig-like domains” The Immunologist 7, 132-136), and for each CDR, residues falling under either or both Kabat and IMGT CDR definitions were called as CDR residues. To generate pH-dependent sequence variants, individual amino acid residues within the heavy chain CDRs were systematically substituted with a histidine, one at a time (MYT1252-MYT1292). In cases where the starting CDR residue was a histidine, it was mutated to an alanine. Antibody variants with only one histidine or alanine mutation in a heavy chain CDR were generated by co-transfection of Expi293 cells with a) one heavy chain sequence variant, and b) the corresponding starting ABPC light chain using methods known to the art. After allowing for four days of protein expression, cell culture supernatants were collected, quantified by SDS-PAGE analysis (FIG. 1), and the pH dependence of the variant was evaluated using biolayer interferometry (BLI) on an Octet RED 384 instrument. For constructs MYT1252, MYT1254-MYT1287, and MYT1289-1292, 104, of cell culture supernatant was diluted into 1904, of 1× PBST pH 7.4. For MYT1253 and MYT1288 254, and 504, of cell culture supernatant was diluted into 1754, and 1504, respectively. […] The resulting diluted supernatants were then captured on an anti-human Fc sensor (Forte Bio). A baseline was established using 1× PBST (50 mM Potassium Phosphate Buffer+150 mM NaCl+0.05% Tween 20) pH 7.4, and the sensor was associated with 50 nM of CD123 (CD123 Protein, His Tag, Acro Biosciences Cat. No. ILA-H52H6, Lot No. 1741d-89CF1-KB) in 1×PBST pH 7.4 for 120 sec to generate an association curve. In the dissociation phase, the antibody-antigen complex on the sensor was exposed to 1× PBST pH 7.4 for 300-600 sec. Baseline, association, and dissociation were repeated using 1×PBST pH 5.4 throughout in a separate condition.
For orientation: Biolayer interferometry detects binding as a change in optical thickness at a sensor tip.

B1: MYT1414 (antibody, V domains shown)
VH: QVQLVQSGAEVKKPGASVKMSCKASHYTFTDYYMKWVKQAPGQGLEWIGDIIPSNGATFYNQKFKGKATLTVDRSISTAYMHLNRLRSDDTAVYYCTRSHLLRASWFAYWGQGTLVTVSS
VL: DFVMTQSPDSLAVSLGERATINCKSSQSLLNSGNQKNYLTWYLQKPGQPPKLLIYWASTRESGVPDRFSGSGSGTDFTLTISSLQAEDVAVYYCQNDYSYPYTFGQGTKLEIK
notes: IgG
B1: the binding result was “binds”.

B2: MYT1415 (antibody, V domains shown)
VH: B1 VH with H26G, Y27H
VL: B1 VL
notes: IgG
Take B2: the binding result is on record as “binds”.

B3: MYT1416 (antibody, V domains shown)
VH: B1 VH with H26G, T28H
VL: B1 VL
notes: IgG
As to B3, the binding result was “binds”.

B4: MYT2762 (antibody, V domains shown)
VH: QVQLVQSGAEVKKPGASVKVSCKASGYIFTSSIMHWVRQAPGQGLEWIGYIKPYNDGTKYNEKFKGRATLTSDRSTSTAYMELSSLRSEDTAVYYCAREGGNDYYDHMHYWGQGTLVTVSS
VL: DIQMTQSPSSLSASVGDRVTITCRASQDINSYLSWFQQKPGKAPKTLIYRVNRLVDGVPSRFSGSGSGNDYTLTISSLQPEDFATYYCLQYDAFPYTFGQGTKVEIK
notes: IgG
In the case of B4, the binding result is “binds”.

B5: MYT2796 (antibody, V domains shown)
VH: B4 VH with H107T, H109D
VL: B4 VL with F94H
notes: IgG
For the molecule B5, the binding result was “binds”.

B6: MYT2779 (antibody, V domains shown)
VH: B4 VH with H107T, H109D
VL: B4 VL with N30H
notes: IgG
Consider B6, for which the binding result was “binds”.

B7: MYT2787 (antibody, V domains shown)
VH: B4 VH with H107T, H109D
VL: B4 VL with R53H
notes: IgG
Consider B7, for which the binding result is “binds”.

B8: MYT2776 (antibody, V domains shown)
VH: B4 VH with H107T, H109D
VL: B4 VL with Q27H
notes: IgG
Consider B8, for which the binding result is on record as “binds”.

B9: MYT2792 (antibody, V domains shown)
VH: B4 VH with H107T, H109D
VL: B4 VL with Q90H
notes: IgG
Turning to B9, the binding result is reported as “binds”.

B10: MYT2784 (antibody, V domains shown)
VH: B4 VH with H107T, H109D
VL: B4 VL with R50H
notes: IgG
On to B10, for which the binding result is given as “binds”.

B11: MYT2793 (antibody, V domains shown)
VH: B4 VH with H107T, H109D
VL: B4 VL with Y91H
notes: IgG
In the case of B11, the binding result is “binds”.

B12: MYT2777 (antibody, V domains shown)
VH: B4 VH with H107T, H109D
VL: B4 VL with D28H
notes: IgG
B12: the binding result is given as “binds”.

B13: MYT2799 (antibody, V domains shown)
VH: B4 VH with H107T, H109D
VL: B4 VL with T97H
notes: IgG
For the molecule B13, the binding result was “binds”.

B14: MYT2794 (antibody, V domains shown)
VH: B4 VH with H107T, H109D
VL: B4 VL with D92H
notes: IgG
With B14, the binding result is “binds”.

B15: MYT2789 (antibody, V domains shown)
VH: B4 VH with H107T, H109D
VL: B4 VL with V55H
notes: IgG
On to B15, for which the binding result is given as “binds”.

B16: MYT2778 (antibody, V domains shown)
VH: B4 VH with H107T, H109D
VL: B4 VL with I29H
notes: IgG
For the molecule B16, the binding result is given as “binds”.

B17: MYT2780 (antibody, V domains shown)
VH: B4 VH with H107T, H109D
VL: B4 VL with S31H
notes: IgG
As to B17, the binding result is recorded as “binds”.

B18: MYT2775 (antibody, V domains shown)
VH: B4 VH with H107T, H109D
VL: B4 VL with S26H
notes: IgG
In the case of B18, the binding result was “binds”.

B19: MYT2782 (antibody, V domains shown)
VH: B4 VH with H107T, H109D
VL: B4 VL with L33H
notes: IgG
For the molecule B19, the binding result is reported as “binds”.

B20: MYT2790 (antibody, V domains shown)
VH: B4 VH with H107T, H109D
VL: B4 VL with D56H
notes: IgG
Consider B20, for which the binding result is reported as “binds”.

B21: MYT2791 (antibody, V domains shown)
VH: B4 VH with H107T, H109D
VL: B4 VL with L89H
notes: IgG
As to B21, the binding result is on record as “binds”.

B22: MYT2786 (antibody, V domains shown)
VH: B4 VH with H107T, H109D
VL: B4 VL with N52H
notes: IgG
Regarding B22, the binding result is “binds”.

B23: MYT2773 (antibody, V domains shown)
VH: B4 VH with H107T, H109D
VL: B4 VL with R24H
notes: IgG
Regarding B23, the binding result is listed as “binds”.

B24: MYT2797 (antibody, V domains shown)
VH: B4 VH with H107T, H109D
VL: B4 VL with P95H
notes: IgG
For B24, the binding result is “binds”.

B25: MYT2781 (antibody, V domains shown)
VH: B4 VH with H107T, H109D
VL: B4 VL with Y32H
notes: IgG
Take B25: the binding result is “binds”.

B26: MYT2764 (antibody, V domains shown)
VH: B4 VH with Y27H, H35A, H109D
VL: B4 VL
notes: IgG
For the molecule B26, the binding result is on record as “binds”.

B27: MYT2783 (antibody, V domains shown)
VH: B4 VH with H107T, H109D
VL: B4 VL with S34H
notes: IgG
B27: the binding result is listed as “binds”.

B28: MYT2763 (antibody, V domains shown)
VH: B4 VH with Y27H, H35A, Y105H, H107T, H109D
VL: B4 VL
notes: IgG
For the molecule B28, the binding result was “binds”.

B29: MYT2798 (antibody, V domains shown)
VH: B4 VH with H107T, H109D
VL: B4 VL with Y96H
notes: IgG
As to B29, the binding result is “binds”.

B30: MYT2795 (antibody, V domains shown)
VH: B4 VH with H107T, H109D
VL: B4 VL with A93H
notes: IgG
In the case of B30, the binding result is given as “binds”.

B31: MYT2785 (antibody, V domains shown)
VH: B4 VH with H107T, H109D
VL: B4 VL with V51H
notes: IgG
With B31, the binding result was “binds”.

B32: MYT2774 (antibody, V domains shown)
VH: B4 VH with H107T, H109D
VL: B4 VL with A25H
notes: IgG
As to B32, the binding result is listed as “binds”.

B33: MYT2788 (antibody, V domains shown)
VH: B4 VH with H107T, H109D
VL: B4 VL with L54H
notes: IgG
B33: the binding result was “binds”.
